Measurements reported in patent publication US20200256882A1, “FLUID PROPERTY MEASUREMENT DEVICES AND METHODS” (Abram Scientific, Inc., priority 2019, published 2020).

System: whole blood samples (extrinsic coagulation pathway)
Assay: Thromboelastogram (TEG) coagulation test on disposable test strip
Format: biochemical
Details: blood samples with increasing concentrations, 0 to 1.8 nM; FIG. 19(b)
Procedure: The disposable test strips used in this example were incorporated with a reagent comprising of rabbit brain thromboplastin (Pacific Hemostasis Prothrombin Time reagent, Thromboplastin-DS, Product# 29-227-3), calcium chloride (25 mM) and Tween (2% v/v aqueous solution). Prior to the final assembly of the strip, the reagent was incorporated by dispensing the solution on to the exposed hydrophilic surface in the bottom stack, followed by air-drying in a drying box with humidity control at standard room temperature and pressure. The ratio of the volume of the reagent to blood tested in the chamber was maintained at close to 2:1 to ensure successful initiation of the blood coagulation reaction. […] Lastly, in some tests, blood samples were also tested using 2 Haemonetics' TEG-5000 instruments (2 tests per instrument) and their corresponding TEG curve & parameters were recorded, in order to perform side-by-side comparison with the results generated using the disposable test strips. Results: • In this example, the oscillation characteristics (amplitude and phase) of the in-plane vibration mode of a physical element in single-use disposable test strips were measured as a function of frequency in the vicinity of the resonance frequency, and these amplitude & phase frequency scans were monitored periodically to determine different aspects of the blood coagulation cascade. […]

B1: tPA: tissue plasminogen activator, enhances the external fibrinolysis process (protein, UniProt P00750 36-562, looked up)
Tissue-type plasminogen …: SYQVICRDEKTQMIYQQHQSWLRPVLRSNRVEYCWCNSGRAQCHSVPVKSCSEPRCFNGGTCQQALYFSDFVCQCPEGFAGKCCEIDTRATCYEDQGISYRGTWSTAESGAECTNWNSSALAQKPYSGRRPDAIRLGLGNHNYCRNPDRDSKPWCYVFKAGKYSSEFCSTPACSEGNSDCYFGNGSAYRGTHSLTESGASCLPWNSMILIGKVYTAQNPSAQALGLGKHNYCRNPDGDAKPWCHVLKNRRLTWEYCDVPSCSTCGLRQYSQPQFRIKGGLFADIASHPWQAAIFAKHRRSPGERFLCGGILISSCWILSAAHCFQERFPPHHLTVILGRTYRVVPGEEEQKFEVEKYIVHKEFDDDTYDNDIALLQLKSDSSRCAQESSVVRTVCLPPADLQLPDWTECELSGYGKHEALSPFYSERLKEAHVRLYPSSRCTSQHLLNRTVTDNMLCAGDTRSGGPQANLHDACQGDSGGPLVCLNDGRMTLVGIISWGLGCGQKDVPGVYTKVTNYLDWIRDNMRP
- fibrinolysis rate Lys-Rate: increasing trend
